From patent US10766952B2, “Methods for reducing migraine frequency in a subject in need thereof” (Beth Israel Deaconess Medical Center, Inc., priority 2017, dated 2020)
Ends that are not written are not given here.

T1: human α-CGRP (Homo sapiens, UniProt P06881)
T1 construct: 1-37 (WT); purchased; host or cells: synthetic peptide
T1 sequence (P06881 83-119 limits assumed): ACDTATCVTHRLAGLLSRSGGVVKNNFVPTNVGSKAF

T2: rat α-CGRP (Rattus norvegicus, UniProt P01256)
T2 construct: rat α (1-37); host or cells: synthetic peptide
T2 sequence (P01256 83-119 limits assumed): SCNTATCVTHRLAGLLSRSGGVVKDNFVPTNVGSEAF


Tests used:
[1] = target: T3, binding of G1 Fab to human α-CGRP on the chip (Homo sapiens); assay: Epitope mapping of antibody G1 by peptide competition using Biacore; settings: 10 μM peptide in 50 nM G1 Fab; FIG. 6
T3 construct: made in house; host or cells: E. coli (Fab); chip peptide purchased
Excerpt: N-biotinylated human α-CGRP was captured on SA sensor chip. […] Y axis represents percentage of binding blocked by the presence of the competing peptide compared with the binding in the absence of the competing peptide.
Human α-CGRP was purchased as an N-biotinylated version to enable its high-affinity capture via SA sensor chips. […] All these peptides are amidated at the C-terminus.

[2] = target: T1, human α-CGRP; assay: Biacore affinity of antibody G1 Fab and variants to human α-CGRP; assay type: binding; settings: 37° C., Fab, screening mode unless underlined
How it was run: (§1)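 Fab fragments flowed over N-biotinylated CGRP captured on SA chip in HBS-EP pH 7.4; titration series fit globally to 1:1 Langmuir model, KD = koff/kon. For very slow off-rates, kon from 550 nM–1 nM series with 30 s dissociation, koff from 2-hour dissociation.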

[3] = target: T2, rat α-CGRP; assay: Biacore affinity of antibody G1 Fab and variants to rat α-CGRP; assay type: binding; settings: 37° C., Fab, screening mode unless underlined
How it was run: as §1

T3 sequence (P01859 with tags, fused parts or gaps, other chains not shown): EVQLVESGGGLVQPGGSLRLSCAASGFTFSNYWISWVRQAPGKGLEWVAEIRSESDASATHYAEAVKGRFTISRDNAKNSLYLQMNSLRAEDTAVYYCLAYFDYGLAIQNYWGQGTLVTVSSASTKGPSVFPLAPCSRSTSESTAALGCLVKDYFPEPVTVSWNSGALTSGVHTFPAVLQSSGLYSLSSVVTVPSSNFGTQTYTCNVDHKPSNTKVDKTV

Molecule | percentage of binding of G1 Fab to human α-CGRP blocked by competing peptide [1] | α-human koff [2] [s⁻¹] | α-rat koff [3] [s⁻¹]
human amylin: SEQ ID NO: 46, KCNTATCATQRLANFLVHSSNNFGAILSSTNVGSNTY | did not compete |  | 
adrenomedullin: SEQ ID NO: 47, YRQSMNNFQGLRSFGCRFGTCTVQKLAHQIYQFTDKDKDNVAPRSKISPQGY | did not compete |  | 
calcitonin: SEQ ID NO: 45, CGNLSTCMLGTYTQDFNKFHTFPQTAIGVGAP | did not compete |  | 
19-36: human α-CGRP fragment, SEQ ID NO: 37, SGGVVKNNFVPTNVGSKA (SGGVVKNNFVPTNVGSKA-OH) | did not compete |  | 
M45: G1 variant: L1 R28N; L2 G50A,L56T; H2 E54K,A57N,S58E,E64D; HC-FW3 L99T,A100V (antibody, V domains shown) VH: EVQLVESGGGLVQPGGSLRLSCAASGFTFSNYWISWVRQAPGKGLEWVAEIRSKSDNEATHYADAVKGRFTISRDNAKNSLYLQMNSLRAEDTAVYYCTVYFDYGLAIQNYWGQGTLVTVSS VL: EIVLTQSPATLSLSPGERATLSCKASKNVTTYVSWYQQKPGQAPRLLIYAASNRYTGIPARFSGSGSGTDFTLTISSLEPEDFAVYYCSQSYNYPYTFGQGTKLEIK |  | 0.000211 | 0.00558
M42: G1 variant: L1 R28N; L2 G50A,L56T; H2 E54K,A57N,H61F; HC-FW3 L99T,A100V (antibody, V domains shown) VH: EVQLVESGGGLVQPGGSLRLSCAASGFTFSNYWISWVRQAPGKGLEWVAEIRSKSDNSATFYAEAVKGRFTISRDNAKNSLYLQMNSLRAEDTAVYYCTVYFDYGLAIQNYWGQGTLVTVSS VL: EIVLTQSPATLSLSPGERATLSCKASKNVTTYVSWYQQKPGQAPRLLIYAASNRYTGIPARFSGSGSGTDFTLTISSLEPEDFAVYYCSQSYNYPYTFGQGTKLEIK |  | 0.000417 | 0.00752
M43: G1 variant: L1 R28N; L2 G50A,L56T; H2 E54K,A57N,S58C; HC-FW3 L99T,A100V (antibody, V domains shown) VH: EVQLVESGGGLVQPGGSLRLSCAASGFTFSNYWISWVRQAPGKGLEWVAEIRSKSDNCATHYAEAVKGRFTISRDNAKNSLYLQMNSLRAEDTAVYYCTVYFDYGLAIQNYWGQGTLVTVSS VL: EIVLTQSPATLSLSPGERATLSCKASKNVTTYVSWYQQKPGQAPRLLIYAASNRYTGIPARFSGSGSGTDFTLTISSLEPEDFAVYYCSQSYNYPYTFGQGTKLEIK |  | 0.000263 | 0.00453
M44: G1 variant: L1 R28N; L2 G50A,L56T; H2 E54K,A57N,S58E; HC-FW3 L99T,A100V (antibody, V domains shown) VH: EVQLVESGGGLVQPGGSLRLSCAASGFTFSNYWISWVRQAPGKGLEWVAEIRSKSDNEATHYAEAVKGRFTISRDNAKNSLYLQMNSLRAEDTAVYYCTVYFDYGLAIQNYWGQGTLVTVSS VL: EIVLTQSPATLSLSPGERATLSCKASKNVTTYVSWYQQKPGQAPRLLIYAASNRYTGIPARFSGSGSGTDFTLTISSLEPEDFAVYYCSQSYNYPYTFGQGTKLEIK |  | 0.00021 | 0.00613
M40: G1 variant: L1 R28N; L2 G50A,L56T; H2 E54K,A57L; HC-FW3 L99T,A100V (antibody, V domains shown) VH: EVQLVESGGGLVQPGGSLRLSCAASGFTFSNYWISWVRQAPGKGLEWVAEIRSKSDLSATHYAEAVKGRFTISRDNAKNSLYLQMNSLRAEDTAVYYCTVYFDYGLAIQNYWGQGTLVTVSS VL: EIVLTQSPATLSLSPGERATLSCKASKNVTTYVSWYQQKPGQAPRLLIYAASNRYTGIPARFSGSGSGTDFTLTISSLEPEDFAVYYCSQSYNYPYTFGQGTKLEIK |  | 0.00128 | 0.36
M41: G1 variant: L1 R28N; L2 G50A,L56T; H2 E54K,A57N,E64D; HC-FW3 L99T,A100V (antibody, V domains shown) VH: EVQLVESGGGLVQPGGSLRLSCAASGFTFSNYWISWVRQAPGKGLEWVAEIRSKSDNSATHYADAVKGRFTISRDNAKNSLYLQMNSLRAEDTAVYYCTVYFDYGLAIQNYWGQGTLVTVSS VL: EIVLTQSPATLSLSPGERATLSCKASKNVTTYVSWYQQKPGQAPRLLIYAASNRYTGIPARFSGSGSGTDFTLTISSLEPEDFAVYYCSQSYNYPYTFGQGTKLEIK |  | 0.00021 | 0.00453

Results, then the molecule that gave them:

percentage of binding of G1 Fab to human α-CGRP blocked by competing peptide [1] | α-human koff [2] [s⁻¹] | α-rat koff [3] [s⁻¹] | Molecule
did not compete |  |  | 1-13: human α-CGRP fragment, SEQ ID NO: 40, ACDTATCVTHRLA (ACDTATCVTHRLA-OH; cysteine pairing not given here)
did not compete |  |  | 1-19: human α-CGRP fragment, SEQ ID NO: 39, ACDTATCVTHRLAGLLSRS (ACDTATCVTHRLAGLLSRS-OH; cysteine pairing not given here)
about 40% |  |  | 1-36: human α-CGRP fragment, SEQ ID NO: 38, ACDTATCVTHRLAGLLSRSGGVVKNNFVPTNVGSKA (ACDTATCVTHRLAGLLSRSGGVVKNNFVPTNVGSKA-OH; cysteine pairing not given here)
 | 0.000425 | 0.00995 | M39: G1 variant: L1 R28N; L2 G50A,L56T; H2 A57N,S58Y; HC-FW3 L99T,A100V (antibody, V domains shown) VH: EVQLVESGGGLVQPGGSLRLSCAASGFTFSNYWISWVRQAPGKGLEWVAEIRSESDNYATHYAEAVKGRFTISRDNAKNSLYLQMNSLRAEDTAVYYCTVYFDYGLAIQNYWGQGTLVTVSS VL: EIVLTQSPATLSLSPGERATLSCKASKNVTTYVSWYQQKPGQAPRLLIYAASNRYTGIPARFSGSGSGTDFTLTISSLEPEDFAVYYCSQSYNYPYTFGQGTKLEIK
